Molecular target: OsAP2-39 (OsNUE39) (Oryza sativa) (UniProt Q7XPL6)
Experiment: EMSA
Conditions: Invitrogen EMSA kit E33075 per manufacturer; 30 ng protein with 0-400 ng DNA; 4-20% TBE native gel, 200 V, 45 min; buffer, salt, pH and temperature not stated

Sequence of OsAP2-39 (OsNUE39) (Oryza sativa) (Q7XPL6 entry or part of it): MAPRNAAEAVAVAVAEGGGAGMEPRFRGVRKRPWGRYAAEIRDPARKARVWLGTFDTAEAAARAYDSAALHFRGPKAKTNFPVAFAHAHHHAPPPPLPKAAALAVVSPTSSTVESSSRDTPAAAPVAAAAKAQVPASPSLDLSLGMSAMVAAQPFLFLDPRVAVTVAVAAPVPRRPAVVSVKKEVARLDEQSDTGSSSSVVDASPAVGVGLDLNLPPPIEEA

Question: How did the binding turn out when “AGTGTTCTGTTCCCCCGGGGAGATAAACCCCCCCTCCTTGGCAACGATACTACCAAGGTTTCTCATCACCAAGATTGTTTGCATGGGACACAGTAACAAACACCGCAGCCGCCGGCGCCGCAGACATT (double strand) [OsNCED-1 promoter GCC-box fragment]” was run?
Answer: binds

— PMC2936520
